The values below come from patent publication US20040157248.

The target in series [1] is RecA E38K/ΔC17 (Escherichia coli) (UniProt P0A7G6). The following applies: apparent kcat of ATP hydrolysis with SSB-prebound poly(dT); no lag; higher with SSB than without.
Series [2] deals with RecAΔC17 (Escherichia coli) (UniProt P0A7G6). The following applies: salt titration midpoint by DNA-dependent ATPase, no SSB, 37 C; value is NaCl at half-maximal ATPase.
Series [3] addresses RecA wild-type (Escherichia coli) (UniProt P0A7G6). To be noted: salt titration midpoint by DNA-dependent ATPase, no SSB, 37 C; value is NaCl at half-maximal ATPase.
Series [4] has the same target. To be noted: ATPase rate without SSB relative to with SSB, 10 mM Mg.
Series [5] addresses RecAΔC17 (Escherichia coli) (UniProt P0A7G6). The following applies: ATPase rate without SSB relative to with SSB, 10 mM Mg.

Bounds are passed on as bounds.

For the substance poly(dT), the activity in series [1] was above 20 min⁻¹. The K half in series [2] worked out at 700 mM NaCl; in series [3] it was 750 mM NaCl.
Turning to M13mp8 circular ssDNA, the values for the relative ATPase rate in series [4] and in series [5] were 30% and 84%, respectively.
